Measurements taken from PMC9259988, “Heterologous Expression and Evaluation of Novel Plasmodium falciparum Transmission Blocking Vaccine Candidates” (Frontiers in Immunology, 2022).

Target: the molecule itself
Assay: non-reducing and reducing SDS-PAGE; purified protein run non-reduced and reduced (10 mM dithiothreitol) on a 4-20% Bis-Tris gel, Coomassie-type staining

B1: Pf3D7_1143700 fragment 1-100 expressed in Drosophila melanogaster S2 cells (TBC1^DM) (domain or fragment, Plasmodium falciparum 3D7, UniProt Q8IHS8 1-100, looked up)
chain: MKVKIGSFENFLERLNNIKEEDIIINDENTEEMFSSFLITFYKENEGRYTIQEQEYINNLLNILINKIRDNKNGRNFFSNLLCIHFKSITPYFINVKLKD
notes: Conserved Plasmodium protein, unknown function, PF3D7_1143700, Plasmodium falciparum 3D7 genome (PlasmoDB), residues 1-100; codon-optimised synthetic gene; secreted; the dimer is held by a disulphide bond
stoichiometry N: 2
